Laboratory results as given in publication PMC6625990, “Structural underpinnings of Ric8A function as a G-protein α-subunit chaperone and guanine-nucleotide exchange factor” (Nature Communications, 2019).

B1: bovine Ric8A1–492 [bovine] / Gαt333–350 [modified: biotin on the N-terminus (in the BLI assays); biotin on the N-terminus (in the BLI assays)] [not stated] (parent)
chain 1: MEPRAVADALETGEEDVVMEALRAYNRENSQSFTFDDAQQEDRKRLAKLLVSVLEQGLPPSRRVIWLQSIRILSRDRSCLDSFTSRRSLQALACYAGISASQGSVPEPLNMDVVLESLKCLCNLVLSSPVAQALAAEAGLVVRLAERVGLCRQSSFPHDVQFFDLRLLFLLTALRTDVRQQLFQELQGVRLLTRALELTLGMTEGERHPELLPPQETERAMEILKVLFNITFDSIKREVDEEDAALYRHLGTLLRHCVMLAAAGDRTEELHGHAVNLLGNLPVKCLDVLLTLEPHEGSLEFLGVNMDVIRVLLSFMEKRLHQTHRLKESVAPVLSVLTECARMHRPARKFLKAQVLPPLRDVRTRPEVGELLRNKLVRLMTHLDTDVKRVAAEFLFVLCSESVPRFIKYTGYGNAAGLLAARGLMAGGRPEGQYSEDEDTDTDEYKEAKASINPVTGRVEEKPPNPMEGMTEEQKEHEAMKLVNMFDKLSRH
chain 2: DAVTDIIIKENLKDCGLF

Experiments:
[1] = variants of: B1; assay: BLI (steady-state); conditions: with Gαt333–350 [modified: biotin on the N-terminus (in the BLI assays)
[2] = variants of: B1; assay: BLI (steady-state binding curve); conditions: with Gαt333–350 [modified: biotin on the N-terminus (in the BLI assays), biotinylated Gαt333–350 coupled to a streptavidin biosensor

| Variant | Kd [1] [nM] | Kd [2] [nM] |
| --- | --- | --- |
| chain 1 A173W | > 10000 | > 10000 |
| chain 1 F169R | 1800 | 1900 |
